The values below come from patent US20230374147A1.

This experiment deals with His-tagged mouse BCMA (Acro Biosystems, BCA-M52H3) (mouse) (UniProt O88472). In words: ELISA, hybridoma supernatant, coated His-tagged antigen. (An ELISA detects its analyte on a solid surface through an enzyme-linked reagent.)
Sequence of His-tagged mouse BCMA (Acro Biosystems, BCA-M52H3) (mouse) (O88472 1-49 limits assumed): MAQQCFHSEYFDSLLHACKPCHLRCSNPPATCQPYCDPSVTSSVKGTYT

B1: 539-SP5-D7 (antibody produced by the hybridoma) (antibody, V domains shown)
VH: EVMLVDSGGNLVKPGGSLKLSCAASGFTFSNYVISWVRQTPEKRLEWVATISTVGTNTYYPDSVRGRFTISRDNAENTLYLQMSSLRSEDTAIYYCSRHKYGYDDPSYAMDYWGQGTSVTVSS
VL: QLVLTQSSSASFSLGASAKLTCTLSSQHSTYTIEWYQQQPLKPPKYVMELKKDGSHSTGDGIPDRFSGSSSGADRYLSISNIQAEDEAIYICGVGDTVKEQFVYVFGGGTKVTVL
B1 registered an ELISA values (OD 450 nm) of 0.025 OD.
